In article PMC9482650, “Quantitative fragmentomics allow affinity mapping of interactomes” (Nature Communications, 2022):

Tests used:
Assay in all cases: holdup assay
Set-up in all cases: key: below the threshold = too weak to quantify, mostly under pKd 3.1 to 4
Details in all cases: plain residues with an end cap or a label only (N-terminal biotin on a linker: ttds)
APBA2_1, Q99767 = molecular target: T1, APBA2_1, Q99767
T1 sequence (Q99767 563-664, limits assumed, looked up): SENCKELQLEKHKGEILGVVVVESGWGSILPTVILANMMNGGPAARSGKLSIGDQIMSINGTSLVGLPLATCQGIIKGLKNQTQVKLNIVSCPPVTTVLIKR

ARHGEF11, O15085 = molecular target: T2, ARHGEF11, O15085
T2 sequence (O15085 42-136, limits assumed, looked up): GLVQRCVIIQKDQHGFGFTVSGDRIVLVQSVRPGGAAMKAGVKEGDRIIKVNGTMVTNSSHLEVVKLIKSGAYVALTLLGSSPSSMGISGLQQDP

DLG1_1, Q12959 = molecular target: DLG1_1, Q12959
DLG3_1, Q92796 = molecular target: T3, DLG3_1, Q92796
T3 sequence (Q92796 125-227, limits assumed, looked up): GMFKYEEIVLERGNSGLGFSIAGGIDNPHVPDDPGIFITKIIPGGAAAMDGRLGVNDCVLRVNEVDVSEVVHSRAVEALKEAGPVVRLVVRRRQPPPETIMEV

DLG4_1, P78352 = molecular target: DLG4_1, P78352
DVL3, Q92997 = molecular target: T4, DVL3, Q92997
T4 sequence (Q92997 244-331, limits assumed, looked up): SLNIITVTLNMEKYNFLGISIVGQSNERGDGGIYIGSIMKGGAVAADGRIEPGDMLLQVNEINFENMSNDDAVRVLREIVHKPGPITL

FRMPD2_3, Q68DX3 = molecular target: FRMPD2_3, Q68DX3
FRMPD4, Q14CM0 = molecular target: FRMPD4, Q14CM0
GRIP1_3, Q9Y3R0 = molecular target: T5, GRIP1_3, Q9Y3R0
T5 sequence (Q9Y3R0 247-346, limits assumed, looked up): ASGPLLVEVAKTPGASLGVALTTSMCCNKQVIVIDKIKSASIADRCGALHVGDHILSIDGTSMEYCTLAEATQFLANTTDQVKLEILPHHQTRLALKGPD

GRIP1_5, Q9Y3R0 = molecular target: T6, GRIP1_5, Q9Y3R0
T6 sequence (Q9Y3R0 568-668, limits assumed, looked up): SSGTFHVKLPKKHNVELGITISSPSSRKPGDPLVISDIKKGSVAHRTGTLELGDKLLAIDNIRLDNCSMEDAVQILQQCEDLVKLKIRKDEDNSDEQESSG

GRIP2_5, Q9C0E4 = molecular target: GRIP2_5, Q9C0E4
HTRA4, P83105 = molecular target: T7, HTRA4, P83105
T7 sequence (P83105 378-476, limits assumed, looked up): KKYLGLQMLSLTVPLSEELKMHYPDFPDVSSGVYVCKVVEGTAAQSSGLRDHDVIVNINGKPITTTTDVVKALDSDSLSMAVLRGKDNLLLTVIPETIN

Inadl_2, Q8NI35 = molecular target: Inadl_2, Q8NI35
Inadl_4, Q8NI35 = molecular target: Inadl_4, Q8NI35
Inadl_5, Q8NI35 = molecular target: Inadl_5, Q8NI35
Inadl_6, Q8NI35 = molecular target: Inadl_6, Q8NI35
LDB3, O75112 = molecular target: LDB3, O75112
LNX2_2, Q8N448 = molecular target: T8, LNX2_2, Q8N448
T8 sequence (Q8N448 334-432, limits assumed, looked up): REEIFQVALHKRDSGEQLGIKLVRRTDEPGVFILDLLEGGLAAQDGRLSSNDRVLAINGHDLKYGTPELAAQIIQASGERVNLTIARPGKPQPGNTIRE

MAGI1_1, Q96QZ7 = molecular target: MAGI1_1, Q96QZ7
MAGI1_2, Q96QZ7 = molecular target: MAGI1_2, Q96QZ7
MAGI2_4, Q86UL8 = molecular target: MAGI2_4, Q86UL8
MAGI2_6, Q86UL8 = molecular target: MAGI2_6, Q86UL8
NHERF3_1, Q5T2W1 = molecular target: T9, NHERF3_1, Q5T2W1
T9 sequence (Q5T2W1 4-100, limits assumed, looked up): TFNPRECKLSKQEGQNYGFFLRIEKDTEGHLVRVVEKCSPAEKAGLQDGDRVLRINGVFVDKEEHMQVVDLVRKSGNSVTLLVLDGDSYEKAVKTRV

PDZRN4_1, Q6ZMN7 = molecular target: PDZRN4_1, Q6ZMN7
RHPN1, Q8TCX5 = molecular target: T10, RHPN1, Q8TCX5
T10 sequence (Q8TCX5 508-602, limits assumed, looked up): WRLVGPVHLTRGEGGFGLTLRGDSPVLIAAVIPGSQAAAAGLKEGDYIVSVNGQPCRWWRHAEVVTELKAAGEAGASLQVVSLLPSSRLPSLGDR

SNTG1, Q9NSN8 = molecular target: T11, SNTG1, Q9NSN8
T11 sequence (Q9NSN8 52-150, limits assumed, looked up): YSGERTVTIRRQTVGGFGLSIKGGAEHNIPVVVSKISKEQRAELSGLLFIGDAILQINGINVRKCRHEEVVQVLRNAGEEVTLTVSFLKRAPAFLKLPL

TJP2_1, Q9UDY2 = molecular target: TJP2_1, Q9UDY2
Chain of TJP2_1, Q9UDY2 (Q9UDY2 24-128): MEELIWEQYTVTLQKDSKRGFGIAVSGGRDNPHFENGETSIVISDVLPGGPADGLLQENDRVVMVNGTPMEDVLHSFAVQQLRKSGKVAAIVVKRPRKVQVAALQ

Chain of FRMPD4, Q14CM0 (Q14CM0 67-160): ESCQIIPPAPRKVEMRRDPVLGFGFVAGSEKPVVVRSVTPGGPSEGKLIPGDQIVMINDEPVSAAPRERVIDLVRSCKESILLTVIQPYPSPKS
Chain of GRIP2_5, Q9C0E4 (Q9C0E4 544-642): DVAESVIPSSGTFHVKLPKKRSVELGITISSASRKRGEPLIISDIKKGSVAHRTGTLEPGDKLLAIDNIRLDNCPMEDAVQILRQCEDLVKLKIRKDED
Chain of MAGI2_4, Q86UL8 (Q86UL8 772-865): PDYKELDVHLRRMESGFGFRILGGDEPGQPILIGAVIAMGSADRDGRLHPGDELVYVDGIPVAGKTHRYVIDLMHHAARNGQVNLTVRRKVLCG
Chain of MAGI2_6, Q86UL8 (Q86UL8 1141-1229): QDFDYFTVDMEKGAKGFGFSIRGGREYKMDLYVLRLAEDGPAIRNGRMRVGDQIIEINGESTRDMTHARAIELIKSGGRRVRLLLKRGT
Chain of MAGI1_2, Q96QZ7 (Q96QZ7 456-580): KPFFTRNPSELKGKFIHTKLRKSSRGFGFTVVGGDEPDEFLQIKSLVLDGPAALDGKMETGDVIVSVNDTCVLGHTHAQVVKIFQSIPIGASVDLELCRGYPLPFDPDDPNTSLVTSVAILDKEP
Chain of Inadl_5, Q8NI35 (Q8NI35 673-780): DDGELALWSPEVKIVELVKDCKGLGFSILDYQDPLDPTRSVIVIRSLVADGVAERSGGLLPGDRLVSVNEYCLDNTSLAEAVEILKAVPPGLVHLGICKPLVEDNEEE
Chain of FRMPD2_3, Q68DX3 (Q68DX3 1073-1166): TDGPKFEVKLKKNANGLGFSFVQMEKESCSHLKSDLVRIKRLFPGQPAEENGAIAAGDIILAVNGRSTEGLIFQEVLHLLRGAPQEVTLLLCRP
Chain of DLG4_1, P78352 (P78352 62-152): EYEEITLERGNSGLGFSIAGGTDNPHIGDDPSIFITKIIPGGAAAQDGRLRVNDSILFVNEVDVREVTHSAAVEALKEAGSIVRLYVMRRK
Chain of LDB3, O75112 (O75112 1-94): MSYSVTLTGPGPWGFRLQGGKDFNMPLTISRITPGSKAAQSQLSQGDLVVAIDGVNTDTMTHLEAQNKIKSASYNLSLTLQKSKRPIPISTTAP
Chain of Inadl_2, Q8NI35 (Q8NI35 238-335): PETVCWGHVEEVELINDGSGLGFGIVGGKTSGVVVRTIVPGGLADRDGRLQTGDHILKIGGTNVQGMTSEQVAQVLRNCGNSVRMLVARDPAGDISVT
Chain of Inadl_4, Q8NI35 (Q8NI35 547-651): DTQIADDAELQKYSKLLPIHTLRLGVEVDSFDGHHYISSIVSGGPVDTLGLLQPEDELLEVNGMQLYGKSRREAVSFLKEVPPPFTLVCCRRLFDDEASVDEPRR
Chain of Inadl_6, Q8NI35 (Q8NI35 1058-1167): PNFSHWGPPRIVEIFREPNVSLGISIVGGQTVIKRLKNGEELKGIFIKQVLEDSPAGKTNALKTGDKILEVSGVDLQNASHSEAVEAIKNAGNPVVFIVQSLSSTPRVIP
Chain of PDZRN4_1, Q6ZMN7 (Q6ZMN7 213-318): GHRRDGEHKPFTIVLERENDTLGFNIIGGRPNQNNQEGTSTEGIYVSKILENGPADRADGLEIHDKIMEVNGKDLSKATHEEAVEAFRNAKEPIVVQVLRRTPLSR
Chain of MAGI1_1, Q96QZ7 (Q96QZ7 1-106): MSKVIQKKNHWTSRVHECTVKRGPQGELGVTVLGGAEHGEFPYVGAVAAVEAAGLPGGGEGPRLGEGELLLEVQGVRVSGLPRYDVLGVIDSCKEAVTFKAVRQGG

Binder	pKd (APBA2_1, Q99767)	pKd (ARHGEF11, O15085)	pKd (DLG1_1, Q12959)	pKd (DLG3_1, Q92796)	pKd (DLG4_1, P78352)	pKd (DVL3, Q92997)	pKd (FRMPD2_3, Q68DX3)	pKd (FRMPD4, Q14CM0)	pKd (GRIP1_3, Q9Y3R0)	pKd (GRIP1_5, Q9Y3R0)	pKd (GRIP2_5, Q9C0E4)	pKd (HTRA4, P83105)	pKd (Inadl_2, Q8NI35)	pKd (Inadl_4, Q8NI35)	pKd (Inadl_5, Q8NI35)	pKd (Inadl_6, Q8NI35)	pKd (LDB3, O75112)	pKd (LNX2_2, Q8N448)	pKd (MAGI1_1, Q96QZ7)	pKd (MAGI1_2, Q96QZ7)	other results
SSLQSLETSV [ATP2B4, P23634]	below the threshold	4.43	5	4.35	4.78	3.6	below the threshold	below the threshold	below the threshold	below the threshold	below the threshold	3.6	below the threshold	below the threshold	below the threshold	below the threshold	below the threshold	4.01	3.71	3.68	pKd (MAGI2_4, Q86UL8): 4.19; pKd (MAGI2_6, Q86UL8): 4.55; pKd (NHERF3_1, Q5T2W1): 4.41; pKd (PDZRN4_1, Q6ZMN7): 4.79; pKd (RHPN1, Q8TCX5): 4.58; pKd (SNTG1, Q9NSN8): 5.08; pKd (TJP2_1, Q9UDY2): 3.62
RHTTSTETAV [HPV30-E6, P36809]	below the threshold	4.35	4.93	4.45	4.92	below the threshold	3.87	below the threshold	below the threshold	below the threshold	3.75	below the threshold	below the threshold	below the threshold	below the threshold	below the threshold	below the threshold	3.77	below the threshold	4.39	pKd (MAGI2_4, Q86UL8): 4.07; pKd (MAGI2_6, Q86UL8): 4.19; pKd (NHERF3_1, Q5T2W1): 4.87; pKd (PDZRN4_1, Q6ZMN7): 4.53; pKd (RHPN1, Q8TCX5): 4.08; pKd (SNTG1, Q9NSN8): 4.94; pKd (TJP2_1, Q9UDY2): below the threshold
DKDPHSETAL [TMIGD1, Q6UXZ0]	below the threshold	4.28	3.77	below the threshold	below the threshold	below the threshold	below the threshold	4.34	below the threshold	below the threshold	below the threshold	below the threshold	below the threshold	below the threshold	below the threshold	3.53	below the threshold	below the threshold	below the threshold	below the threshold	pKd (MAGI2_4, Q86UL8): below the threshold; pKd (MAGI2_6, Q86UL8): 3.79; pKd (NHERF3_1, Q5T2W1): 5.42; pKd (PDZRN4_1, Q6ZMN7): 4.64; pKd (RHPN1, Q8TCX5): 3.85; pKd (SNTG1, Q9NSN8): 4.1; pKd (TJP2_1, Q9UDY2): below the threshold
KKYVDAETSL [SLC4A7, Q9Y6M7]	below the threshold	3.97	below the threshold	3.49	3.73	below the threshold	below the threshold	4.4	below the threshold	3.53	below the threshold	below the threshold	below the threshold	below the threshold	below the threshold	3.71	below the threshold	below the threshold	below the threshold	3.69	pKd (MAGI2_4, Q86UL8): below the threshold; pKd (MAGI2_6, Q86UL8): 3.68; pKd (NHERF3_1, Q5T2W1): 5.38; pKd (PDZRN4_1, Q6ZMN7): 4.8; pKd (RHPN1, Q8TCX5): 4.28; pKd (SNTG1, Q9NSN8): 3.82; pKd (TJP2_1, Q9UDY2): below the threshold
